Reference: US20200255528A1 (Five Prime, published 2020)

T1: human B7-H4 on cells (human, UniProt Q7Z7D3 25-282)
T1 construct: Full-length human B7-H4 on transfected HEK293T cells (also aAPCs) or endogenous on SK-BR-3 breast cancer cells; also called SK-BR-3 (endogenous human B7-H4)
T1 sequence: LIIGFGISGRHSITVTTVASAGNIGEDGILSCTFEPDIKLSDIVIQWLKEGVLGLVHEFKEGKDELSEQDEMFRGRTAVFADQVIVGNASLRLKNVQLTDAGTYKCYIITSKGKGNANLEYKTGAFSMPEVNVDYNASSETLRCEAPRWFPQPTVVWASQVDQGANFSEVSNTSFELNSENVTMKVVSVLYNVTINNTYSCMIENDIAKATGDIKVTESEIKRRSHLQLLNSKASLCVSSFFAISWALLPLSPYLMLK

T2: rat B7-H4 on cells (rat, UniProt Q501W4 25-257)
T2 construct: Full-length, on transfected HEK293T cells
T2 sequence: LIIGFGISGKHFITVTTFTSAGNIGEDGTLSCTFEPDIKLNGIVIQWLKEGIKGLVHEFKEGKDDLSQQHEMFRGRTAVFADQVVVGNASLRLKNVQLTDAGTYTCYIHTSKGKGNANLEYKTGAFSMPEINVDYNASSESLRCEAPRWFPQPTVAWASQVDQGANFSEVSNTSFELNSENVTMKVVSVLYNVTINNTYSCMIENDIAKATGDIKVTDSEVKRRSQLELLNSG

T3: mouse B7-H4 on cells (mouse, UniProt Q7TSP5 25-257)
T3 construct: Full-length, on transfected HEK293T cells
T3 sequence: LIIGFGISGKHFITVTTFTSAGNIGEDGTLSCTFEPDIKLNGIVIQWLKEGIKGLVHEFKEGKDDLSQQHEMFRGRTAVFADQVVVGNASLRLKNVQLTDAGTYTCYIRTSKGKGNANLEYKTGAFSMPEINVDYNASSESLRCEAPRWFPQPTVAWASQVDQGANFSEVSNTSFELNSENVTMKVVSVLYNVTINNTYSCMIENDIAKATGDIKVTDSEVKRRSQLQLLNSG

T4: cynomolgus monkey B7-H4 on cells (cynomolgus monkey, UniProt Q7Z7D3 25-282 (human entry))
T4 construct: Full-length, on transfected HEK293T cells
T4 chain: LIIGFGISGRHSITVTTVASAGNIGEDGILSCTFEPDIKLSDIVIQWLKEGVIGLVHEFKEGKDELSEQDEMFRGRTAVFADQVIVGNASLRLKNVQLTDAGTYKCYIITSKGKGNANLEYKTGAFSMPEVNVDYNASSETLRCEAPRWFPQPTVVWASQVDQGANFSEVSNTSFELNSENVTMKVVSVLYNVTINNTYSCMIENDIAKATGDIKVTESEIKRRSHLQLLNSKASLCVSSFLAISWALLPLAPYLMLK


Assays:
[1] = target: T5, recombinant human B7-H4-huIgG1 (human); test: BLI and SPR
T5 construct: the entry begins with the N-terminal leader (MASLG...), no cleavage site is stated; also called B7-H4-hulgGl; B7-H4-extracellular domain (ECD)

[2] = target: T1, human B7-H4 on cells; test: flow cytometry titration on SK-BR-3 cells (endogenous human B7-H4), GEO MFI against antibody concentration
Procedure: (§1) Following incubation, cells were pelleted, washed and incubated with a secondary labeling antibody and samples were acquired on a flow cytometer. Data was analyzed using the FlowJo software and MFI was plotted vs. antibody concentration. The EC50 cell binding potency was calculated using nonlinear regression curve fit (GraphPad Prism).

[3] = target: T2, rat B7-H4 on cells; test: flow cytometry titration on HEK293T cells transfected with rat B7-H4 (293-ratB7-H4), GEO MFI against antibody concentration
Procedure: as §1

[4] = target: T3, mouse B7-H4 on cells; test: flow cytometry titration on HEK293T cells transfected with mouse B7-H4 (293-mouseB7-H4), GEO MFI against antibody concentration
Procedure: as §1

[5] = target: T4, cynomolgus monkey B7-H4 on cells; test: flow cytometry titration on HEK293T cells transfected with cynomolgus monkey B7-H4 (293-cynoB7-H4), GEO MFI against antibody concentration
Procedure: as §1

| binding result [1] | EC50 (read off the curve) [2] | binding result [3] | EC50 (read off the curve) [4] | EC50 (read off the curve) [5] | Binder |
| --- | --- | --- | --- | --- | --- |
| binds | – | – | – | – | antibody 15483 (antibody, human IgG1, kappa, V domains shown, human IgG1/kappa) VH: QVQLQESGPGLVKPSQTLSLTCTVSGGSISSGGYYWSWIRQHPGKGLEWIGNIYYSGSTYYNPSLKSRVTISVDTSKNQFSLKLSSVTAADTAVYYCARGLSTIDEAFDPWGQGTLVTVSS VL: not shown |
| – | ~2 nM | binds | ~8 nM | ~5 nM | antibody 20506 (antibody, V domains shown, human IgG1/kappa) VH: QLQLQESGPGLVKPSETLSLTCTASGGSISHGGYYWSWIRQHPGKGLEWIGNIYYSGSTYYNPSLKSRVTMSVDTSKNQFSLKLSSVTAADTAVYYCARESSTISADFDLWGRGTLVTVSS VL: DIQMTQSPSSVSASVGDRVTITCRASQGISRWLAWYQQKPGKAPKLLIYAASSLQSGVPSRFSGSGSGTDFTLTISSLQPEDFATYYCQQAHTFPYTFGGGTKVEIKR |
| binds | – | – | – | – | antibody 15462 (antibody, human IgG1, kappa, V domains shown, human IgG1/kappa) VH: QLQLQESGPGLVKPSETLSLTCTVSGGSISSSSYYWGWIRQPPGKGLEWIGNIYYSGSTYYNPSLKSRVTISVDTSKNQFSLKLSSVTAADTAVYYCAREGSYTTVLNVWGQGTMVTVSS VL: EIVLTQSPGTLSLSPGERATLSCRASQSVSSSYLAWYQQKPGQAPRLLIYGASSRATGIPDRFSGSGSGTDFTLTISRLEPEDFAVYYCQQAASYPLTFGGGTKVEIKR |
